# Key:
# [1] = tested on: total cell lysates derived from MCF7 CARM1 KO cells; test: In vitro methylation of total cell lysates by recombinant CARM1 proteins, autoradiography; assay type: biochemical, human; settings: 3H-SAM, 1–4 h, 30 °C
# Method: The FL and N-terminal domain-deleted version of human CARM1 cDNAs, and other PRMT FL cDNAs were cloned into pFN21K Halo Tag CMV Flexi mammalian expression vector (Promega, Madison, WI) using the unique Sgfl and Pmel site[55]. To express the protein, DNA constructs were transiently transfected into HEK293T CARM1 KO cells in 15 cm dishes using transIT-LT1 reagent (Mirus Bio, Madison, WI) according to the manufacturer's protocol. Proteins were allowed to express for 48 h. Cell pellets were then collected and lysed in lysis buffer (50 mM HEPES, pH 7.5, 150 mM NaCl, 0.005% NP-40, 0.5 mM EDTA, supplemented with 1 × protease inhibitor cocktail before use). The cells were sonicated on ice using a Branson Sonifier 450 with a microtip at 35% amplitude (10 s on, 30 s off, 6 cycles). […] The resin was centrifuged at 3,000 r.p.m. for 5 min, and the supernatant containing the cleaved protein was collected and protein concentration was determined using the Bradford assay (Thermo Scientific, Rockford, IL). Protein purity was assessed by running SDS–PAGE and Coomassie Blue staining.
# Purified recombinant enzyme and substrates were incubated in methylation buffer (50 mM Tris-HCl, pH 8.0, 100 mM NaCl and 0.5 mM EDTA) for 1–4 h at 30 °C in the presence of 1 μl radioactive S-adenosyl-L-[methyl-^3H] methionine. […] Protein methylation was detected by autoradiography.
# [2] = tested on: MCF7 CARM1 KO cells; test: Total cellular ADMA levels, stable expression, western blot; assay type: cell-based, human; settings: stable expression in MCF7 CARM1 KO cells; compared with CARM1 FL and CARM1 28–608
# Excerpt: We next sought to assess the impact of CARM1 N-terminal deletion in cells stably expressing mutant enzymes. […] To quantify the affected ADMA-containing peptides in MCF7 CARM1 KO and CARM1 140–608 expressing cells, we employed our quantitative MS method (Fig. 1a) using CARM1 28–608 as a reference for normalization (Supplementary Data 4). […] The magnitude of reduction in CARM1 140–608 cells, however, was slightly less than that in the CARM1 KO cells. […] As indicated by R^2 of 0.65, noticeable differences existed between the levels of ADMA-containing peptides in cells expressing the N-terminal truncation of CARM1 and CARM1 28–608 control (Supplementary Fig. 4f).
# Cells were collected by trypsinization, washed with Dulbecco's phosphate buffer saline (Life Technologies, Carlsbad, CA) and lysed by suspension in lysis buffer (50 mM Tris-HCl pH 8.0, 150 mM NaCl, 10% glycerol, 0.5% Triton X-100 and 1 × protease inhibitor cocktail (Sigma-Aldrich)). After brief sonication followed by centrifugation, total protein was quantified using the BioRad Protein Assay (BioRad, Hercules, CA), and 20 μg protein was resolved by SDS–PAGE. Proteins were transferred to a nitrocellulose membrane for 1.5 h at 350 mA. Membranes were blocked with 5% nonfat milk at room temperature for 1 h and incubated overnight with diluted primary antibody at 4 °C. […]
# [3] = tested on: MCF7 CARM1 KO cells; test: Quantitative MS of ADMA-containing peptides in MCF7 CARM1 KO cells expressing CARM1 28-608 or CARM1 140-608, and in CARM1 KO; assay type: cell-based, human; settings: stable CARM1 140–608 in MCF7 CARM1 KO cells; reference CARM1 28–608; three biological replicas
molecule,measurement,setting,value
"CARM1 140–608: CARM1 140–608 lacks the first 140 residues encompassing the EVH1 domain (protein, left off: FLAG, end not stated, kept, CARM1 140–608 lacks the first 140 residues encompassing the EVH1 domain) RTEESSAVQYFQFYGYLSQQQNMMQDYVRTGTYQRAILQNHTDFKDKIVLDVGCGSGILSFFAAQAGARKIYAVEASTMAQHAEVLVKSNNLTDRIVVIPGKVEEVSLPEQVDIIISEPMGYMLFNERMLESYLHAKKYLKPSGNMFPTIGDVHLAPFTDEQLYMEQFTKANFWYQPSFHGVDLSALRGAAVDEYFRQPVVDTFDIRILMAKSVKYTVNFLEAKEGDLHRIEIPFKFHMLHSGLVHGLAFWFDVAFIGSIMTVWLSTAPTEPLTHWYQVRCLFQSPLFAKAGDTLSGTCLLIANKRQSYDISIVAQVDQTGSKSSNLLDLKNPFFRYTGTTPSPPPGSHYTSPSENMWNTGSTYNLSSGMAVAGMPTAYDLSSVIASGSSVGHNNLIPLANTGIVNHTHSRMGSIMSTGIVQGSSGAQGSGGGSTSAHYAVNSQFTMGGPAISMASPMSIPTNTMHYGS",Total protein methylation of cell lysate,[1],substantial reduction of total protein methylation
same,Cellular protein (ADMA) methylation levels,[2],drastically decreased levels of cellular protein methylation
same,Abundance of ADMA-containing peptides,[3],massive reduction in abundances of ADMA-containing peptides

# Reference: paper PMC5458078, “Global mapping of CARM1 substrates defines enzyme specificity and substrate recognition” (Nature Communications, 2017)
